Changes are numbered by the printed parent chain.
T1: human PAC1 receptor (human, UniProt P41586 21-468)
T1 sequence: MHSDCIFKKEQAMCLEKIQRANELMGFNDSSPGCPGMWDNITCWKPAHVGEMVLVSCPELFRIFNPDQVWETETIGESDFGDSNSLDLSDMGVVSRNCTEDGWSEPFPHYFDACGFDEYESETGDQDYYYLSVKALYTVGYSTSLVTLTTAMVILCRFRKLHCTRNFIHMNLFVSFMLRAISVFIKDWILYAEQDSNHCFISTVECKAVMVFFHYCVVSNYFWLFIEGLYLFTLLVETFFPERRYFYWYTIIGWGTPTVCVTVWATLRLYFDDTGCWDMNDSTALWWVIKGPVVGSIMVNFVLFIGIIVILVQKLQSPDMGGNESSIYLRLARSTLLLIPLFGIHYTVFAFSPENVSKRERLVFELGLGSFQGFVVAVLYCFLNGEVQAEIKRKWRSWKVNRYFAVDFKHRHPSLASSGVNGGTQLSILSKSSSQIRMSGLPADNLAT

B1: iPS:327890 (bispecific antibody, human IgG1, kappa, lambda, N297G)
light 1: not shown
heavy 1: not shown
light 2: QSVLTQPPSVSAAPGQKVTISCSGSSSNIGNNYVSWYQQLPGTAPKLLIYDNNKRPSGIPDRFSGSKSGTSATLAITGLQTGDEADYYCGTWDSRLSAVVFGKGTKLTVLGQPKANPTVTLFPPSSEELQANKATLVCLISDFYPGAVTVAWKADGSPVKAGVETTKPSKQSNNKYAAKSYLSLTPEQWKSHRSYSCQVTHEGSTVEKTVAPTECS
heavy 2: QVQLVESGGGVVQPGRSLRLSCAASGFTFSSFGMHWVRQAPGKELEWVAVISFDGSIKYSVDSVKGRFTISRDNSKNTLFLQMNSLRAEDTAVYYCARDRLNYYDSSGYYHYKYYGMAVWGQGTTVTVSSASTKGPSVFPLAPSSKSTSGGTAALGCLVKDYFPEPVTVSWNSGALTSGVHTFPAVLQSSGLYSLESVVTVPSSSLGTQTYICNVNHKPSNTKVDKKVEPKSCDKTHTCPPCPAPELLGGPSVFLFPPKPKDTLMISRTPEVTCVVVDVSHEDPEVKFNWYVDGVEVHNAKTKPCEEQYGSTYRCVSVLTVLHQDWLNGKEYKCKVSNKALPAPIEKTISKAKGQPREPQVYTLPPSRKEMTKNQVSLTCLVKGFYPSDIAVEWESNGQPENNYKTTPPVLKSDGSFFLYSKLTVDKSRWQQGNVFSCSVMHEALHNHYTQKSLSLSPGK
B2: iPS:328034 (bispecific antibody, human IgG1, kappa, N297G)
light 1: not shown
heavy 1: not shown
light 2: EIVLTQSPGTLSLSPGERATLSCRASQSVSSGYLTWYQQKPGQAPRLLIYGASSRATGIPDRFSGSGSGTDFTLTISRLEPEDFAVYYCQQYGNSLSRFGKGTKLEIKRTVAAPSVFIFPPSDEQLKSGTASVVCLLNNFYPREAKVQWKVDNALQSGNSQESVTEQDSKDSTYSLKSTLTLSKADYEKHKVYACEVTHQGLSSPVTKSFNRGEC
heavy 2: not shown
B3: iPS:328035 (bispecific antibody, human IgG1, kappa, N297G)
light 1: DIQMTQSPSSLSASVGDRITITCRASQSISRYLNWYQQKPGKAPKLLIYAASSLQSGIPSRFSGSGSGTDFTLTINSLQPEDFATYFCQQSYSPPFTFGQGTKVDIKRTVAAPSVFIFPPSDEQLKSGTASVVCLLNNFYPREAKVQWKVDNALQSGNSQESVTEQDSKDSTYSLESTLTLSKADYEKHKVYACEVTHQGLSSPVTKSFNRGEC
heavy 1: not shown
light 2: B2 light 2 with K101Q
heavy 2: not shown
B4: iPS:328036 (bispecific antibody, human IgG1, kappa, N297G)
light 1: not shown
heavy 1: not shown
light 2: B2 light 2 with K101Q
heavy 2: not shown
B5: iPS:326669 (bispecific antibody, human IgG2, kappa)
light 1: EIVLTQSPATLSLSPGERATLSCRASQSVGRSLHWYQQKPGQAPRLLIKYASQSLSGIPARFSGSGSGTDFTLTISSLEPEDFAVYYCHQSSRLPFTFGPGTKVDIKRTVAAPSVFIFPPSDEQLKSGTASVVCLLNNFYPREAKVQWKVDNALQSGNSQESVTEQDSKDSTYSLESTLTLSKADYEKHKVYACEVTHQGLSSPVTKSFNRGEC
heavy 1: QVQLVESGGGVVQPGRSLRLSCAASGFTFSRFAMHWVRQAPGKGLEWVAVISYDGGNKYYAESVKGRFTISRDNSKNTLYLQMNSLRAEDTALFYCARGYDVLTGYPDYWGQGTLVTVSSASTKGPSVFPLAPCSRSTSESTAALGCLVKDYFPEPVTVSWNSGALTSGVHTFPAVLQSSGLYSLKSVVTVPSSNFGTQTYTCNVDHKPSNTKVDKTVERKCCVECPPCPAPPVAGPSVFLFPPKPKDTLMISRTPEVTCVVVDVSHEDPEVQFNWYVDGVEVHNAKTKPREEQFNSTFRVVSVLTVVHQDWLNGKEYKCKVSNKGLPAPIEKTISKTKGQPREPQVYTLPPSREEMTKNQVSLTCLVDGFYPSDIAVEWESNGQPENNYDTTPPMLDSDGSFFLYSDLTVDKSRWQQGNVFSCSVMHEALHNHYTQKSLSLSPGK
light 2: B2 light 2 with K101Q
heavy 2: QVQLVESGGGVVQPGRSLRLSCAASGFTFSSYGMHWVRQAPGKGLEWVAVIWYDGSNKYYADSVKGRFIISRDKSKNTLYLQMNSLRAEDTAVYYCARAGGIAAAGLYYYYGMDVWGQGTTVTVSSASTKGPSVFPLAPCSRSTSESTAALGCLVKDYFPEPVTVSWNSGALTSGVHTFPAVLQSSGLYSLESVVTVPSSNFGTQTYTCNVDHKPSNTKVDKTVERKCCVECPPCPAPPVAGPSVFLFPPKPKDTLMISRTPEVTCVVVDVSHEDPEVQFNWYVDGVEVHNAKTKPREEQFNSTFRVVSVLTVVHQDWLNGKEYKCKVSNKGLPAPIEKTISKTKGQPREPQVYTLPPSRKKMTKNQVSLTCLVKGFYPSDIAVEWESNGQPENNYKTTPPMLKSDGSFFLYSKLTVDKSRWQQGNVFSCSVMHEALHNHYTQKSLSLSPGK
B6: iPS:328042 (bispecific antibody, human IgG1, kappa, lambda, N297G)
light 1: B3 light 1
heavy 1: not shown
light 2: not shown
heavy 2: not shown
B7: iPS:328037 (bispecific antibody, human IgG1, kappa, lambda, N297G)
light 1: B3 light 1
heavy 1: not shown
light 2: not shown
heavy 2: not shown
B8: iPS:328044 (bispecific antibody, human IgG1, kappa, lambda, N297G)
light 1: not shown
heavy 1: not shown
light 2: not shown
heavy 2: EVQLVESGGGLVKPGGSLRLSCAASGFTFSNAWMSWVRQAPGKELEWVGRIKSKTDGGTTDYTAPVKGRFTISRDDSKNTLYLQMNSLKAEDTAVYYCTTDRTGYSISWSSYYYYYGMDVWGQGTTVTVSSASTKGPSVFPLAPSSKSTSGGTAALGCLVKDYFPEPVTVSWNSGALTSGVHTFPAVLQSSGLYSLESVVTVPSSSLGTQTYICNVNHKPSNTKVDKKVEPKSCDKTHTCPPCPAPELLGGPSVFLFPPKPKDTLMISRTPEVTCVVVDVSHEDPEVKFNWYVDGVEVHNAKTKPCEEQYGSTYRCVSVLTVLHQDWLNGKEYKCKVSNKALPAPIEKTISKAKGQPREPQVYTLPPSRKEMTKNQVSLTCLVKGFYPSDIAVEWESNGQPENNYKTTPPVLKSDGSFFLYSKLTVDKSRWQQGNVFSCSVMHEALHNHYTQKSLSLSPGK
B9: iPS:328039 (bispecific antibody, human IgG1, kappa, lambda, N297G)
light 1: not shown
heavy 1: not shown
light 2: not shown
heavy 2: B8 heavy 2 with S30G, T63A, A90T, Y97F
B10: iPS:328045 (bispecific antibody, human IgG1, kappa, lambda, N297G)
light 1: B3 light 1
heavy 1: not shown
light 2: not shown
heavy 2: not shown
B11: iPS:328040 (bispecific antibody, human IgG1, kappa, lambda, N297G)
light 1: B3 light 1
heavy 1: not shown
light 2: not shown
heavy 2: not shown
B12: iPS:328047 (bispecific antibody, human IgG1, kappa, lambda, N297G)
light 1: B3 light 1
heavy 1: not shown
light 2: B1 light 2 with A72T, A75G, K103G
heavy 2: B1 heavy 2 with E44G
B13: iPS:326648 (bispecific antibody, human IgG2, kappa, lambda)
light 1: B5 light 1
heavy 1: B5 heavy 1
light 2: not shown
heavy 2: not shown
Further: test concentration or dose not given here.

The binders below were run against human CGRP receptor (human, UniProt Q16602 23-461; O60894 27-148) (assay: cell-based or functional assay).
Sequence of human CGRP receptor (Q16602 23-461 limits assumed, chain 1 of 2): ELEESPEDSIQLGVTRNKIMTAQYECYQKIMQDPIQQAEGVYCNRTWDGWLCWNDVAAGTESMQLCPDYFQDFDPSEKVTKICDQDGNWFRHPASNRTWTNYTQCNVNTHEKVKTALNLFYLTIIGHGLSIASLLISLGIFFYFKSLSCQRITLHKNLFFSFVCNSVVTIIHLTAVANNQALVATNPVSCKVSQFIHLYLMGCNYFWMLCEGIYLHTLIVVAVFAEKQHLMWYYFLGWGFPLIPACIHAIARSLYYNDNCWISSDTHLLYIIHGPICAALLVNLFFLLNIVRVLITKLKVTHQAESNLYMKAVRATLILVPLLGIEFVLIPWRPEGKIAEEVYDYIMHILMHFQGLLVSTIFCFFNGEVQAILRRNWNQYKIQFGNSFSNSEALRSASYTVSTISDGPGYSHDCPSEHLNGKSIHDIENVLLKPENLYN
Sequence of human CGRP receptor (O60894 27-148 limits assumed, chain 2 of 2): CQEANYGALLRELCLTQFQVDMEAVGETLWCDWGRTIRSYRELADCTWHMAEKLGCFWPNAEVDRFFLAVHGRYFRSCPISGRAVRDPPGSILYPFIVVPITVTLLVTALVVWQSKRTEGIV
With B1 the “% inhibition of human CGRPR” value was 94%.
With B2 the “% inhibition of human CGRPR” value was 86%.
With B3 the “% inhibition of human CGRPR” value was 73%.
In the case of B4, the “% inhibition of human CGRPR” value is reported as 79%.
In the case of B5, the “% inhibition of human CGRPR” value is reported as 74%.
For B6, the “% inhibition of human CGRPR” value was 85%.
B7 was tested, and the “% inhibition of human CGRPR” value was 71%.
For B8, the “% inhibition of human CGRPR” value was 77%.
For B9, the “% inhibition of human CGRPR” value was 74%.
B10 was tested, and the “% inhibition of human CGRPR” value was 67%.
For B11, the “% inhibition of human CGRPR” value was 74%.
With B12 the “% inhibition of human CGRPR” value was 78%.
B13 was tested, and the “% inhibition of human CGRPR” value was 73%.

These binders were tested against T1, human PAC1 receptor (assay: cell-based or functional assay).
B1 was tested, and the “% inhibition of human PAC1” value was 15%.
B2 was tested, and the “% inhibition of human PAC1” value was 9%.
For B3, the “% inhibition of human PAC1” value was 10%.
B4 was tested, and the “% inhibition of human PAC1” value was 21%.
B5 was tested, and the “% inhibition of human PAC1” value was 85%.
In the case of B6, the “% inhibition of human PAC1” value is reported as 20%.
In the case of B7, the “% inhibition of human PAC1” value is reported as 25%.
B8 was tested, and the “% inhibition of human PAC1” value was 5%.
With B9 the “% inhibition of human PAC1” value was 9%.
For B10, the “% inhibition of human PAC1” value was 29%.
For B11, the “% inhibition of human PAC1” value was 70%.
In the case of B12, the “% inhibition of human PAC1” value is reported as 33%.
In the case of B13, the “% inhibition of human PAC1” value is reported as 92%.
